From patent publication US20040048243A1, “Methods and compositions for in vitro targeting” (priority 2003, published 2004)
No end group written: not given here.

Columns and labels:
[1] = target: T1, CD13 (Sus scrofa, UniProt P15145); assay: Peptide competition of angiostatin binding to CD13; conditions: up to 500 μg of peptide; not shown
T1 construct: purchased Sigma, St Louis, Mo; L-9776
T1 sequence (P15145 2-963 limits assumed): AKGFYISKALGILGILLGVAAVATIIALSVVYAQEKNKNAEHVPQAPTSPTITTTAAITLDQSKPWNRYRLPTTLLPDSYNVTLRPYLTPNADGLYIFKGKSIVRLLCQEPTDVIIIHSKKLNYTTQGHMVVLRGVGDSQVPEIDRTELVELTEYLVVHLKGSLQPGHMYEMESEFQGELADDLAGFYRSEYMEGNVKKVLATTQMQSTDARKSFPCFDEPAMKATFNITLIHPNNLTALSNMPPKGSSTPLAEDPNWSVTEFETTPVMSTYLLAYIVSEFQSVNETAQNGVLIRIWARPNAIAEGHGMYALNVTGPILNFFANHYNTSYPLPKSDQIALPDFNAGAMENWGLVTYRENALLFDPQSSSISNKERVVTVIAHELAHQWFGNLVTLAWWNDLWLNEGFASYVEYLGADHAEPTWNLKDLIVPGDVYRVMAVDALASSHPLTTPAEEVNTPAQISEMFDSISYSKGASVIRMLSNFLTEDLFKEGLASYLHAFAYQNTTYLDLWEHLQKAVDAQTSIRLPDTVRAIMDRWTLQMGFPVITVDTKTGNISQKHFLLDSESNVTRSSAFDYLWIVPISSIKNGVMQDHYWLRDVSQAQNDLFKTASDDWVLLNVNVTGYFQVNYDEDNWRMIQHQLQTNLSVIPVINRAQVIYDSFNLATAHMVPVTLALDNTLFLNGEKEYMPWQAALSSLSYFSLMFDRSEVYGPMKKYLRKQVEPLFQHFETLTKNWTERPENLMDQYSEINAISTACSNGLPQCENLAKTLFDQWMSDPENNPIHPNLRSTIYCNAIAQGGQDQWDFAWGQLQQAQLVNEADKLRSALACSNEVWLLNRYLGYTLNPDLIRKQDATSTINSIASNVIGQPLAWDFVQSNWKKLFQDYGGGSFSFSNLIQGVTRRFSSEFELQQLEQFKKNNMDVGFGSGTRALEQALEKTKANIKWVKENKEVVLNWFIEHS
Protocol: (§1) To assess protein-protein interactions, 100 ng/well of protein was coated in triplicate in 96-well plates. The plates were dried at 37° C., blocked with PBS and 3% BSA, and incubated with 10 μg/ml of rhAngiostatin in PBS+1% BSA for three hours at RT. The wells were washed three times with PBS, 3% BSA, 0.01% Tween 20 before incubation with anti-rhAngiostatin antibody (R&D Systems, Inc #AF226) at 1 μg/ml for 1 hour at RT. The wells were then washed three times with PBS, 3% BSA, 0.01% Tween 20 and incubated with […] anti-goat antibody. After washing 3 times with PBS, 0.01% Tween 20 and once with PBS, the wells were developed with p-nitrophenyl phosphate. Binding of alkaline phosphate conjugate was detected colorimetrically at […]. using an ELISA microplate reader.
Binding of angiostatin to CD13 was competitive with the NGR peptide (Burg et al., 1999) in a dose-dependent manner (not shown). Control experiments were run with the CARAC peptide (SEQ ID NO: 169) (not shown). Binding of angiostatin to CD13 was inhibited by more than 50% by 0.5 μg of NGR peptide, while binding was unaffected by up to 500 μg of CARAC peptide (SEQ ID NO: 169) (not shown).

[2] = system: MDA-MB435 cells; assay: Inhibition of RGD-4C-β-gal phage transduction by synthetic peptides; type: cell-based, human; conditions: target cells pre-incubated with synthetic peptide; dose-dependent
Protocol: (§2) In the peptide inhibition experiments, MDA-MB435 cells were cultured on 12-well plates and then incubated with 10 μg of RGD-4C peptide (SEQ ID NO: 166) or control peptides (CARAC, SEQ ID NO: 169 or CKDRFERC, SEQ ID. NO: 59) in normal growth media for 30 minutes. KS1767 cells were grown on 12-well plates and then incubated with 40 μg CTTHWGFTLC (SEQ D NO: 167) or control peptides in normal growth media for 30 minutes. After this the growth media were replaced by 500 μl of MEM containing 2% FCS and 5×10^10 transducing units (TU) of either RGD-4C-β-gal, HWGF-β-gal, or control fd-β-gal phage. Phage vectors were incubated on peptide-treated cells (three hours at 37° C., 5% CO2) followed by a media change to MEM plus 10% FCS. Transduced cells were then maintained in a cell incubator for 72 hours (37° C., 5% CO2).
(§3) In the peptide inhibition assays, β-gal activity in cell lysates was detected by the Galacto-Star® chemiluminescent reporter gene system (Tropix, Bedford, Mass.) according to the manufacturer's protocol. […] Cells were analyzed for GFP gene expression at 72 hours post infection. For GFP detection, cells were analyzed by fluorescence activated cell sorting (FACS) in a FACScan (Becton-Dickinson, San Jose, Calif.) or counted and photographed under a fluorescence microscope (Nikon).

[3] = system: KS1767 cells; assay: Inhibition of HWGF-β-gal phage transduction by synthetic peptides; type: cell-based, human; conditions: target cells pre-incubated with synthetic peptide; dose-dependent
Protocol: as §2, §3

[4] = system: tumor-associated antigens in tissue sections from bone marrow metastasis; assay: Immunohistological staining with antibodies against peptide C; type: binding, human; conditions: antibodies pre-incubated with GST-peptide C
Protocol: GST-fusion proteins containing the peptide sequence from patient C were coated on multi-well plates. After incubating the plates with the patient's serum, the plates were washed. The bound IgG antibodies were eluted with 50 μl of 0.1 M glycine buffer, pH 2.2, neutralized by addition of 10 μl 1 M Tris pH 9.0, and dialyzed in PBS overnight followed by concentration of the antibody using Centricon-30 (Millipore) filters. The purified antibody (500 μg) was coupled to biotin according to the manufacturer's instructions (Vector). The biotinylated antibody was analyzed by SDS-gel electrophoresis.
Paraffin sections from patient C were stained with purified biotinylated antibodies and peptide antibodies by immunoperoxidase detection using the Dako antigen retrieval kit and DAB as a substrate. All of the sections (4 μm) were counter-stained with hematoxylin. The biotinylated immunopurified antibodies were used at a dilution of 1:100. Peptide C antibodies and purified pre-immune antibodies were used at 0.01 μg/μl. For the inhibition staining, peptide C antibodies were pre-incubated for 30 minutes at room temperature with the GST-peptide C (500μg) prior to staining. Peptide antibodies were generated in rabbits and purified using a T-gel immunoglobulin purification kit and protein G column (Pierce).

[5] = system: angiostatin receptor in tissue sections; assay: Angiostatin staining of tissue sections of metastatic human bone marrow; type: binding; conditions: 100 μg/ml rh-angiostatin, anti-angiostatin antibody detection
Protocol: Angiostatin was incubated with tissue sections of metastitic human bone marrow. After washing, the tissue sections were developed with an anti-angiostatin Ab, followed by the corresponding secondary Ab conjugated to peroxidase. […] The staining was specific since only this structure and not other cells were stained.
Anti-human Angiostatin were purchased (R&D Systems: AF226). rhAngiostatin was produced by EntreMed, Inc. (Rockville, Md.). Surgical specimens of human metastases (Bouin-fixed 4-6 h, paraffin-embedded sections, 5-6 μm thick) were adsorbed on polylysine-coated slides. Tissue slides were incubated with 100 μg/ml of rh-angiostatin. The slides were washed 3 times and incubated with anti-angiostatin antibody. The slides were washed again 3 times and bound antibodies were detected using an anti-goat peroxidase-conjugate antibody.

[6] = system: LN (laminin); assay: Protein-protein interaction ELISA: rhAngiostatin binding to coated protein
Protocol: as §1

[7] = target: T2, Thrombospondin 1 (TSP-1) (Homo sapiens, UniProt P07996); assay: as above; conditions: TSP-1, positive control
T2 construct: purchased Calbiochem, San Diego, Calif; 605225
T2 sequence (P07996 19-1170): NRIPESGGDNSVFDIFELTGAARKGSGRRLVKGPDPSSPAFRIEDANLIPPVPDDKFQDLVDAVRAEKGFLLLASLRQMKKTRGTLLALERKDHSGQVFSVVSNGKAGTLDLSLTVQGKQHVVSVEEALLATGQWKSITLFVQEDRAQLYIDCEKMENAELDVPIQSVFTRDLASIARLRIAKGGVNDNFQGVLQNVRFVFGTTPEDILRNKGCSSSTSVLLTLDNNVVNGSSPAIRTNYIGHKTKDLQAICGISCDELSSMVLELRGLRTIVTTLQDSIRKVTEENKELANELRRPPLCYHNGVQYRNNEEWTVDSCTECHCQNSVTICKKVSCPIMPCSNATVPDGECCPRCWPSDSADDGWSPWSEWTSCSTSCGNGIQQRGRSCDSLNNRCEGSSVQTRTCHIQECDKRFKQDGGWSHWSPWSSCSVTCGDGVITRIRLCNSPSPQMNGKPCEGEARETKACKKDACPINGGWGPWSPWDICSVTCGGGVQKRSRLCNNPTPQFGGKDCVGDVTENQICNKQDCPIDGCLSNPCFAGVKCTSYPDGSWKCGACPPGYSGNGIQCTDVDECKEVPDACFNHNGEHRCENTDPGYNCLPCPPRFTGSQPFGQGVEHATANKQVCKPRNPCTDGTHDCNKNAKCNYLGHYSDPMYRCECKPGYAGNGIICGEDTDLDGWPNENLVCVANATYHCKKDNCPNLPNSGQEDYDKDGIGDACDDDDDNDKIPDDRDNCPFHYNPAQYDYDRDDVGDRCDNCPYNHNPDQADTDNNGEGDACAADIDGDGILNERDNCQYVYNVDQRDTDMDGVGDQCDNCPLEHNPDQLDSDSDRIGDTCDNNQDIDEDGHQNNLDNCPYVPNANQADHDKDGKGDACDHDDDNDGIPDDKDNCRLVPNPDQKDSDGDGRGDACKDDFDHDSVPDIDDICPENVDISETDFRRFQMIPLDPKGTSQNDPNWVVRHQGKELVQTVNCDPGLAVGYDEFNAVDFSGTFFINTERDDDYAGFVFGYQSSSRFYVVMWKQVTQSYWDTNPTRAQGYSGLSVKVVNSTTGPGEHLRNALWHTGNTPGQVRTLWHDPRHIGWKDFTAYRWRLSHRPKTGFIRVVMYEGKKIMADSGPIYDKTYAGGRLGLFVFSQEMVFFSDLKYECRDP
Protocol: as §1

[8] = target: T3, HGF (hepatocyte growth factor) (Homo sapiens, UniProt P14210); assay: as above
T3 construct: purchased Calbiochem, San Diego, Calif; 375228
T3 sequence (P14210 32-728): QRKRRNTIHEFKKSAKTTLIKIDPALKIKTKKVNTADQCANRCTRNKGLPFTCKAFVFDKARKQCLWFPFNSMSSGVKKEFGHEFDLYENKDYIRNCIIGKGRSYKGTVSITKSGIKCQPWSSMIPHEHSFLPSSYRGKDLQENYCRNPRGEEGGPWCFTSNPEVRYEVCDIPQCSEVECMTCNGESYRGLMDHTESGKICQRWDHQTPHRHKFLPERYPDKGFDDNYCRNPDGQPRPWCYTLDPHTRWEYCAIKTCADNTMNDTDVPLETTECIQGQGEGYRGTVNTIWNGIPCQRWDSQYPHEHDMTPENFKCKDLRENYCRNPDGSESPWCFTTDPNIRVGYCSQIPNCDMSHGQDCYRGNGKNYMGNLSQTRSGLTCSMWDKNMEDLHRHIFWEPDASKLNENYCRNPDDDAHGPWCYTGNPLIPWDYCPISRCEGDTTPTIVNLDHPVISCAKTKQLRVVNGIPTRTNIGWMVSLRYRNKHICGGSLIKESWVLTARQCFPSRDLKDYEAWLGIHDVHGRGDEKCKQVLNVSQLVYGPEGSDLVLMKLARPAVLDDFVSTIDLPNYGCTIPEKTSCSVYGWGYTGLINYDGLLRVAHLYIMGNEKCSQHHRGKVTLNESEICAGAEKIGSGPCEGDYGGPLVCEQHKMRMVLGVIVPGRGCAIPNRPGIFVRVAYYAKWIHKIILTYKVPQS
Protocol: as §1

[9] = target: T4, CD13 (Aminopeptidase N) (Sus scrofa, UniProt P15145); assay: as above
T4 construct: purchased Sigma, St Louis, Mo; L-9776
T4 sequence (P15145 1-963): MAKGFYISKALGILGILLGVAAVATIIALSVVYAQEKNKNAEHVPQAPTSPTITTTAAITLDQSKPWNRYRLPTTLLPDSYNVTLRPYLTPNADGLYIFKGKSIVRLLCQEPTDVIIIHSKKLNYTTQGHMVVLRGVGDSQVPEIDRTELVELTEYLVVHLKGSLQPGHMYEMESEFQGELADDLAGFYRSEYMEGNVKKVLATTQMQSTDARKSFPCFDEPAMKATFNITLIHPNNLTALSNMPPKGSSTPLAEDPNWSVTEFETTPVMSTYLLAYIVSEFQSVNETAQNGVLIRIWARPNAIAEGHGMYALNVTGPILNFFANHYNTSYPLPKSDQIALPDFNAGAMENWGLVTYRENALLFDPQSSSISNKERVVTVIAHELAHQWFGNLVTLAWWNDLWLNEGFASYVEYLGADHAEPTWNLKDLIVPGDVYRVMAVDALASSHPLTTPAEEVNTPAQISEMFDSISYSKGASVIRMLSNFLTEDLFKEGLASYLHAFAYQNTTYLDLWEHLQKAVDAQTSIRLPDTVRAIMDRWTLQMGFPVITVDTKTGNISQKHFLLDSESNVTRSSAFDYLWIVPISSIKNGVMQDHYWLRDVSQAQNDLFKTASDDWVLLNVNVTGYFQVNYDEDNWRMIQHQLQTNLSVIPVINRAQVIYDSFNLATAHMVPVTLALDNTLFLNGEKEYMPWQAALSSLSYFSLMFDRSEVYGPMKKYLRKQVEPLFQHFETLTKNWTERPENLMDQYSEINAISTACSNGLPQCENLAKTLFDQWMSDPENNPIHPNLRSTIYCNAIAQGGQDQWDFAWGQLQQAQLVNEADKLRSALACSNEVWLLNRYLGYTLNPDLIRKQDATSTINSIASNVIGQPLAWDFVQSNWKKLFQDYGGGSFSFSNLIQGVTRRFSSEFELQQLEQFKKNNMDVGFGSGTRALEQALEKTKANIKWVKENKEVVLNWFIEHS
Protocol: as §1

[10] = system: COL IV (collagen IV); assay: as above
Protocol: as §1

[11] = target: FN (fibronectin) (Homo sapiens, UniProt P02751); assay: as above
FN (fibronectin), sequence (P02751 32-2477, species assumed): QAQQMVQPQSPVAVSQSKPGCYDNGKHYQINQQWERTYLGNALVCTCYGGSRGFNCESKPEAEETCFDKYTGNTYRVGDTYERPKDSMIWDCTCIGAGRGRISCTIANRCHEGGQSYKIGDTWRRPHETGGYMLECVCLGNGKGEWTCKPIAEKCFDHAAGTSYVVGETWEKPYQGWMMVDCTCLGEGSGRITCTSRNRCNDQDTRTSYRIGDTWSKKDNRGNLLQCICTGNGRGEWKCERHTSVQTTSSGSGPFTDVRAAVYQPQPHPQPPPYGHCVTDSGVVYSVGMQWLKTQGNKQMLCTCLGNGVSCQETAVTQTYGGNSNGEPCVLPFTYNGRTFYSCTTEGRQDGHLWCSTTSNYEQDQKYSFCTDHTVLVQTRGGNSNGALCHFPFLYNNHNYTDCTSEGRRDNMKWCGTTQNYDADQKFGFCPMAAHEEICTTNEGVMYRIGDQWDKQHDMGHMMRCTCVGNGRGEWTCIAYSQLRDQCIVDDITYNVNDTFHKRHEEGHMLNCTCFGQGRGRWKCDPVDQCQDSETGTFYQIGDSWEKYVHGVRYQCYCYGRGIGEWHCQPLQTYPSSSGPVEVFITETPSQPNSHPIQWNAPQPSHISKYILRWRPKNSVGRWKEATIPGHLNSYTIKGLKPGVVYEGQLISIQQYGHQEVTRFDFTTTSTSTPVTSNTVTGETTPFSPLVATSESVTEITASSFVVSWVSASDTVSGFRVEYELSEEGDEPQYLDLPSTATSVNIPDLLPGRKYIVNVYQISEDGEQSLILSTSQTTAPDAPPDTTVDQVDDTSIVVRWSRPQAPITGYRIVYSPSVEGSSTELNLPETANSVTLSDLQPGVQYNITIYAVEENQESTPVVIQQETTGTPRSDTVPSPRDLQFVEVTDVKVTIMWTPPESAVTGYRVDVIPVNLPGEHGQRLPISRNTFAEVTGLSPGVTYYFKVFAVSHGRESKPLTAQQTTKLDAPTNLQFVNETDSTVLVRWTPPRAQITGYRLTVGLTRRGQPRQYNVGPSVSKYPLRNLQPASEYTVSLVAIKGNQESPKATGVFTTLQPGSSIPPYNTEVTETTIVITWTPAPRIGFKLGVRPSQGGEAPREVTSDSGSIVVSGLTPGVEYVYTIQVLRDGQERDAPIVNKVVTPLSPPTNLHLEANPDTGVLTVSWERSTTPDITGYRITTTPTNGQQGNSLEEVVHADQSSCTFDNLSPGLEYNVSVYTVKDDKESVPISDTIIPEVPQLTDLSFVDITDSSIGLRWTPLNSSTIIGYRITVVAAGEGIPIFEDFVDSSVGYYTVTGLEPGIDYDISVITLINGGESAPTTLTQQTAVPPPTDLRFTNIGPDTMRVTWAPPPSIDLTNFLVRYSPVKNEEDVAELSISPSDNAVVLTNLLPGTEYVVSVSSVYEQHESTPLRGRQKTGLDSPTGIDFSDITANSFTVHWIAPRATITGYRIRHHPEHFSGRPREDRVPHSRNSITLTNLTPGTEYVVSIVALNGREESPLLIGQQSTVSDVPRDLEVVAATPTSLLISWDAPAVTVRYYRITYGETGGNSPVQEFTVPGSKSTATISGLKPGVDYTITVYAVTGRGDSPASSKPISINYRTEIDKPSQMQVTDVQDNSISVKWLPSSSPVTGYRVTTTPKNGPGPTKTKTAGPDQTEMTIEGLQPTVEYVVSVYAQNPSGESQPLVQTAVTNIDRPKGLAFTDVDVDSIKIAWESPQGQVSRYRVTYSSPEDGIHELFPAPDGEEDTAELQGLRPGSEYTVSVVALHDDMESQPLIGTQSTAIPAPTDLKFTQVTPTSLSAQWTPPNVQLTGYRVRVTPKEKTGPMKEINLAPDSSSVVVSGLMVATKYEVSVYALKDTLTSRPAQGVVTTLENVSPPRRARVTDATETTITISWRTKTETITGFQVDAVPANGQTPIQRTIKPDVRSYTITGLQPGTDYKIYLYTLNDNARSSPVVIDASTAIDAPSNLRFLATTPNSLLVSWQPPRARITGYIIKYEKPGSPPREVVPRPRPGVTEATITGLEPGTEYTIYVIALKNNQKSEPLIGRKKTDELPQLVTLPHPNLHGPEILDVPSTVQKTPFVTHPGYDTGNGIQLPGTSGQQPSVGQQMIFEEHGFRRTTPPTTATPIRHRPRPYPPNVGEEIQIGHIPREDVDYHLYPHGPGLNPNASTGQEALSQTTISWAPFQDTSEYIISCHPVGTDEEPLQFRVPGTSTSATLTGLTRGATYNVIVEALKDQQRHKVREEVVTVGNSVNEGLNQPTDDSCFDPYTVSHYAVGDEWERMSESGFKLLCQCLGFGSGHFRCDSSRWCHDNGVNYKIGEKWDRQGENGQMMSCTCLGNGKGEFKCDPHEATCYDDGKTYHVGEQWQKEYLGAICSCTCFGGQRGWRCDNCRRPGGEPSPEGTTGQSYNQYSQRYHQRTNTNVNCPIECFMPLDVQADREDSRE
Protocol: as §1

[12] = target: T5, VN (vitronectin) (Homo sapiens, UniProt P04004); assay: as above
T5 sequence (P04004 20-478): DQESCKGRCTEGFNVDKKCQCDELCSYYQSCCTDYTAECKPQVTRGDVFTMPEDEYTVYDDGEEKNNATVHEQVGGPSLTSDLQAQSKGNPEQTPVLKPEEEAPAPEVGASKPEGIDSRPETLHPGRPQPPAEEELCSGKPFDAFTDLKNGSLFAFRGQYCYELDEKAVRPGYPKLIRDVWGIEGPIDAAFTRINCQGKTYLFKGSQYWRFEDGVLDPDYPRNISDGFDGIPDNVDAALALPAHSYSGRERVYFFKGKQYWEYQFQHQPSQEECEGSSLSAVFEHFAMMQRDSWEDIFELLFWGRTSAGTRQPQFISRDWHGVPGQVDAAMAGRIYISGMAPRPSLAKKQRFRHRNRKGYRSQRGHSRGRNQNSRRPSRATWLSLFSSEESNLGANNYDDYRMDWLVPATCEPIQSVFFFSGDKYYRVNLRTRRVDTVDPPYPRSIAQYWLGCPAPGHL
Protocol: as §1

[13] = target: T6, bovine serum albumin (bovine, UniProt P02769 25-607); assay: phage binding assay (FIG. 22)
T6 construct: control protein coated on wells; also called BSA
T6 sequence (P02769 25-607 limits assumed): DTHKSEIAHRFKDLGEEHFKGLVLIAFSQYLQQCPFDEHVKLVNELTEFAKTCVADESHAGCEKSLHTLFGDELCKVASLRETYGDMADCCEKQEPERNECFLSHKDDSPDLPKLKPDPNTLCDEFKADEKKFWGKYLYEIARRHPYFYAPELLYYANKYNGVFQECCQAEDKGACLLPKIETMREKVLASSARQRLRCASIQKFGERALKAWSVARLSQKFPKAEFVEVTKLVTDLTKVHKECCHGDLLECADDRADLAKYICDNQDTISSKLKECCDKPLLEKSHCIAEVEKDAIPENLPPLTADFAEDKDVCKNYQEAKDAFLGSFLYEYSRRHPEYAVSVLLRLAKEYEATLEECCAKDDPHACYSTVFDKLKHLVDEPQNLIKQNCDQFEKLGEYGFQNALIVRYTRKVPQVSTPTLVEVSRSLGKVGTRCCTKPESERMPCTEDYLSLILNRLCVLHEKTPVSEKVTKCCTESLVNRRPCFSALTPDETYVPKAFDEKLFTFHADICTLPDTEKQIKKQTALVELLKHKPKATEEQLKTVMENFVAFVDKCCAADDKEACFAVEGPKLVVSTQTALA

O=c1[nH]cc(F)c(=O)[nH]1 [CARAC peptide, CARAC]
effect on binding of angiostatin to CD13 [1]: unaffected

CDCRGDCFC [RGD4C peptide]
inhibition of RGD-4C-β-gal phage transduction [2]: greater than 99%

CTTHWGFTLC
inhibition of HWGF-β-gal phage transduction [3]: greater than 90%

GST-fusion protein containing peptide C: GST-fusion protein containing peptide C (CNVSDKSC; cysteine pairing not given here; also: fused to GST)
inhibition of anti-peptide C staining [4]: completely inhibited

B1: angiostatin: rh-Angiostatin produced by EntreMed, Inc. (protein)
chain: VYLSECKTGNGKNYRGTMSKTKNGITCQKWSSTSPHRPRFSPATHPSEGLEENYCRNPDNDPQGPWCYTTDPEKRYDYCDILECEEECMHCSGENYDGKISKTMSGLECQAWDSQSPHAHGYIPSKFPNKNLKKNYCRNPDRELRPWCFTTDPNKRWELCDIPRCTTPPPSSGPTYQCLKGTGENYRGNVAVTVSGHTCQHWSAQTPHTHNRTPENFPCKNLDENYCRNPDGKRAPWCHTTNSQVRWEYCKIPSCDSSPV
staining of tissue sections [5]: vessel-like
binding of angiostatin to coated protein [6]: not
binding of angiostatin to coated protein [7]: binds
binding of angiostatin to coated protein [8]: binds
binding of angiostatin to coated protein [9]: binds
binding of angiostatin to coated protein [10]: not
binding of angiostatin to coated protein [11]: not
binding of angiostatin to coated protein [12]: not

CVPELGHEC (cysteine pairing not given here; also: displayed on phage) [phage bearing the sequence CVPELGHEC]
binding result [13]: no binding
